In the data set the target is T1, ETS1 (Homo sapiens, UniProt P14921).
T1 sequence: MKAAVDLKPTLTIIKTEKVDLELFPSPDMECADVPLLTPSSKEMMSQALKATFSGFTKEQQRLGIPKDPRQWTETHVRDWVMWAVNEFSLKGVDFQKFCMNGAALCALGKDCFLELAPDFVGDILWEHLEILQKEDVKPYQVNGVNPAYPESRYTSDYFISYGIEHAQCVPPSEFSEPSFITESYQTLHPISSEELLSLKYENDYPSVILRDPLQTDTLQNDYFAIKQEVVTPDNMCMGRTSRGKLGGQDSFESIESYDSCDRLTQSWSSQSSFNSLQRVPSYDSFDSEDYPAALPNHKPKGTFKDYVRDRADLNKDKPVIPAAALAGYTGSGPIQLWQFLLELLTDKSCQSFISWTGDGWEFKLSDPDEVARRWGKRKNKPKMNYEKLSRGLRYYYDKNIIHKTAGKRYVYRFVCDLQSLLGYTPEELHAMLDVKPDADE
In words: gcPBM; 1 nM ETS1. The note with it: tags: N-terminal GST (pDEST15), kept (PMC6008103); label: surface-attached array probe.

B1: Table S2 C row 132 (dsDNA)
DNA 1: GGCCTGATAGCAATGGCCACAAACACAGCAAGCCAC
DNA 2: GTGGCTTGCTGTGTTTGTGGCCATTGCTATCAGGCC
As for B1, the binding signal is 348 PBM fluorescence, median of replicate spots.

B2: Table S2 C row 139 (dsDNA)
DNA 1: GGAGCTGCTCCAGGCTGCGGTGGGATCAAAGCTACC
DNA 2: GGTAGCTTTGATCCCACCGCAGCCTGGAGCAGCTCC
Regarding B2, the binding signal is 316 PBM fluorescence, median of replicate spots.

B3: Table S2 C row 19 (dsDNA)
DNA 1: GACAAATCAAATGCCACCGCAGAGTTTACTCGAGTT
DNA 2: AACTCGAGTAAACTCTGCGGTGGCATTTGATTTGTC
Consider B3, for which the binding signal was 343 PBM fluorescence, median of replicate spots.

B4: Table S2 B row 1920 (dsDNA)
DNA 1: ACATTCTTCCGGTTGGACCTCCGCGATCAGCGCTGT
DNA 2: ACAGCGCTGATCGCGGAGGTCCAACCGGAAGAATGT
In the case of B4, the binding signal was 16500 PBM fluorescence, median of replicate spots.

B5: Table S2 B row 614 (dsDNA)
DNA 1: GAGGACTTCCGGGTGGGTGTGATATCTACGGGCCCG
DNA 2: CGGGCCCGTAGATATCACACCCACCCGGAAGTCCTC
In the case of B5, the binding signal was 17700 PBM fluorescence, median of replicate spots.

B6: Table S2 C row 193 (dsDNA)
DNA 1: GCTCCTAGATGGCTCTGTGGGCAGGTGCTGGCCAAG
DNA 2: CTTGGCCAGCACCTGCCCACAGAGCCATCTAGGAGC
With B6, the binding signal was 347 PBM fluorescence, median of replicate spots.

B7: Table S2 C row 185 (dsDNA)
DNA 1: GCAGAAATATGCTGAACCACAACTGAAGGTGGCTGA
DNA 2: TCAGCCACCTTCAGTTGTGGTTCAGCATATTTCTGC
Regarding B7, the binding signal was 345 PBM fluorescence, median of replicate spots.

B8: Table S2 C row 45 (dsDNA)
DNA 1: GCGGGGTTGGGAGGCTGCGGGAGTTTGCGTCCCCTC
DNA 2: GAGGGGACGCAAACTCCCGCAGCCTCCCAACCCCGC
For the molecule B8, the binding signal is 339 PBM fluorescence, median of replicate spots.

B9: Table S2 C row 94 (dsDNA)
DNA 1: CCCAAGCCCGCGGGCTGCGGGCGCTGATTGGGCGGC
DNA 2: GCCGCCCAATCAGCGCCCGCAGCCCGCGGGCTTGGG
Consider B9, for which the binding signal is 346 PBM fluorescence, median of replicate spots.

B10: Table S2 C row 189 (dsDNA)
DNA 1: CCCTGGGGTCCCTTTGCCGCAGTTCCACATCTGCAG
DNA 2: CTGCAGATGTGGAACTGCGGCAAAGGGACCCCAGGG
In the case of B10, the binding signal is 346 PBM fluorescence, median of replicate spots.

B11: Table S2 C row 165 (dsDNA)
DNA 1: ATCAGCGTGGCTGCTGCCGCAGAACAAGCCACGCTT
DNA 2: AAGCGTGGCTTGTTCTGCGGCAGCAGCCACGCTGAT
Regarding B11, the binding signal is 345 PBM fluorescence, median of replicate spots.

B12: Table S2 C row 140 (dsDNA)
DNA 1: CCACGGCCCGGTGCCTGTGGTCCCCTCCCCGAGGGT
DNA 2: ACCCTCGGGGAGGGGACCACAGGCACCGGGCCGTGG
As for B12, the binding signal was 328 PBM fluorescence, median of replicate spots.

B13: Table S2 C row 73 (dsDNA)
DNA 1: GTGGCACCCTCAAGGGCCACAACGGCTGGGTAACCC
DNA 2: GGGTTACCCAGCCGTTGTGGCCCTTGAGGGTGCCAC
As to B13, the binding signal is 312 PBM fluorescence, median of replicate spots.

B14: Table S2 C row 188 (dsDNA)
DNA 1: GGAGATAGCCTAGGCTGTGGTTTTTCAGAGAAACCT
DNA 2: AGGTTTCTCTGAAAAACCACAGCCTAGGCTATCTCC
In the case of B14, the binding signal is 350 PBM fluorescence, median of replicate spots.

B15: Table S2 C row 53 (dsDNA)
DNA 1: CCTGGGCTGCAGGCACCCACAGTCCAGAGGCTCAAA
DNA 2: TTTGAGCCTCTGGACTGTGGGTGCCTGCAGCCCAGG
Turning to B15, the binding signal was 318 PBM fluorescence, median of replicate spots.

B16: Table S2 C row 160 (dsDNA)
DNA 1: GCCAGCCTGGGCCGGGCCACAAGAACAAGGAATGTT
DNA 2: AACATTCCTTGTTCTTGTGGCCCGGCCCAGGCTGGC
Take B16: the binding signal is 322 PBM fluorescence, median of replicate spots.

B17: Table S2 B row 703 (dsDNA)
DNA 1: GCCGGGCACTTCCTGTGGAGGCCGAAGCGGGTGCGC
DNA 2: GCGCACCCGCTTCGGCCTCCACAGGAAGTGCCCGGC
On to B17, for which the binding signal is 17200 PBM fluorescence, median of replicate spots.

B18: Table S2 C row 194 (dsDNA)
DNA 1: TCGGGAACGTGGGGCTGCGGCCGCCCATGGTGCCCC
DNA 2: GGGGCACCATGGGCGGCCGCAGCCCCACGTTCCCGA
Consider B18, for which the binding signal is 335 PBM fluorescence, median of replicate spots.

B19: Table S2 C row 195 (dsDNA)
DNA 1: GCTGCTGACTGCCCCTGAGGTTAGAGATTGACTAGA
DNA 2: TCTAGTCAATCTCTAACCTCAGGGGCAGTCAGCAGC
Consider B19, for which the binding signal is 325 PBM fluorescence, median of replicate spots.

B20: Table S2 C row 11 (dsDNA)
DNA 1: AGGTCCTCTGCATTCTGTGGTCACAAACCCAGAGCC
DNA 2: GGCTCTGGGTTTGTGACCACAGAATGCAGAGGACCT
Take B20: the binding signal was 347 PBM fluorescence, median of replicate spots.

B21: Table S2 C row 164 (dsDNA)
DNA 1: GAGCGGAGACAGAACACCGCACACCCAGCGTCCCAA
DNA 2: TTGGGACGCTGGGTGTGCGGTGTTCTGTCTCCGCTC
Consider B21, for which the binding signal is 352 PBM fluorescence, median of replicate spots.

B22: Table S2 C row 8 (dsDNA)
DNA 1: CCACCCGGGGCCTGGACCGCACCACGGTCACTGGCG
DNA 2: CGCCAGTGACCGTGGTGCGGTCCAGGCCCCGGGTGG
For B22, the binding signal is 316 PBM fluorescence, median of replicate spots.

B23: Table S2 B row 649 (dsDNA)
DNA 1: TTATTTCCGGTGTTGATCTTTTTATTGGTACCAGGC
DNA 2: GCCTGGTACCAATAAAAAGATCAACACCGGAAATAA
As for B23, the binding signal was 43000 PBM fluorescence, median of replicate spots.

B24: Table S2 C row 66 (dsDNA)
DNA 1: TCCTGAGTGCTGGGAACCGCAGCGCCACATGCACCC
DNA 2: GGGTGCATGTGGCGCTGCGGTTCCCAGCACTCAGGA
With B24, the binding signal was 341 PBM fluorescence, median of replicate spots.

B25: Table S2 C row 169 (dsDNA)
DNA 1: TGGGCATGCGCGGCGCGCGGTTGGCACTGGCTGCGA
DNA 2: TCGCAGCCAGTGCCAACCGCGCGCCGCGCATGCCCA
Consider B25, for which the binding signal was 336 PBM fluorescence, median of replicate spots.

B26: Table S2 C row 29 (dsDNA)
DNA 1: TGGCCATGGCCTATGACCGCTATGTGGCCATCTGCT
DNA 2: AGCAGATGGCCACATAGCGGTCATAGGCCATGGCCA
Regarding B26, the binding signal was 340 PBM fluorescence, median of replicate spots.

B27: Table S2 C row 126 (dsDNA)
DNA 1: TCCACGCCCCGGCGCTGCGGGCACCGAGTAAAACGC
DNA 2: GCGTTTTACTCGGTGCCCGCAGCGCCGGGGCGTGGA
B27: the binding signal was 327 PBM fluorescence, median of replicate spots.

B28: Table S2 C row 17 (dsDNA)
DNA 1: GGGGTGTACACTAGCTGCGGTCTGATTTAGCCCTTT
DNA 2: AAAGGGCTAAATCAGACCGCAGCTAGTGTACACCCC
As to B28, the binding signal was 351 PBM fluorescence, median of replicate spots.

B29: Table S2 C row 142 (dsDNA)
DNA 1: CCTAAGAGTAAGCTAACCACAGGGATTCTTTTGTAG
DNA 2: CTACAAAAGAATCCCTGTGGTTAGCTTACTCTTAGG
In the case of B29, the binding signal is 351 PBM fluorescence, median of replicate spots.

B30: Table S2 C row 106 (dsDNA)
DNA 1: ATTCACTCATCCCTCACCACAGCCAGCTGCTTGAGA
DNA 2: TCTCAAGCAGCTGGCTGTGGTGAGGGATGAGTGAAT
Turning to B30, the binding signal was 320 PBM fluorescence, median of replicate spots.

B31: Table S2 B row 126 (dsDNA)
DNA 1: TGGCGCTTCCTGTCGCTACCCCAGCGGCCCAGGGCC
DNA 2: GGCCCTGGGCCGCTGGGGTAGCGACAGGAAGCGCCA
Take B31: the binding signal is 18100 PBM fluorescence, median of replicate spots.

B32: Table S2 C row 30 (dsDNA)
DNA 1: TGAAATTTTTCTTTTTGTGGTCAGTAATCCCAAAAA
DNA 2: TTTTTGGGATTACTGACCACAAAAAGAAAAATTTCA
Consider B32, for which the binding signal is 339 PBM fluorescence, median of replicate spots.

B33: Table S2 C row 111 (dsDNA)
DNA 1: CCAGCTGTACTGAGTTGAGGTTTTTCTGACCCTCAG
DNA 2: CTGAGGGTCAGAAAAACCTCAACTCAGTACAGCTGG
Regarding B33, the binding signal was 336 PBM fluorescence, median of replicate spots.

B34: Table S2 C row 35 (dsDNA)
DNA 1: GTAGCTGTAACTGCCACCGCGATGCCGAAGGCGCCC
DNA 2: GGGCGCCTTCGGCATCGCGGTGGCAGTTACAGCTAC
As to B34, the binding signal is 324 PBM fluorescence, median of replicate spots.

B35: Table S2 C row 97 (dsDNA)
DNA 1: CGAGGGCGCGCGTCTCGCGGTCCATCCAGCTCAGCA
DNA 2: TGCTGAGCTGGATGGACCGCGAGACGCGCGCCCTCG
As to B35, the binding signal is 331 PBM fluorescence, median of replicate spots.

B36: Table S2 C row 9 (dsDNA)
DNA 1: CATGTGAGCGACTGGGCCGCAGCCATCAGCCTCCTG
DNA 2: CAGGAGGCTGATGGCTGCGGCCCAGTCGCTCACATG
Regarding B36, the binding signal is 350 PBM fluorescence, median of replicate spots.

B37: Table S2 C row 61 (dsDNA)
DNA 1: TGCTCTCGGCCTGGCTGTGGGCGGGTGGCCATCAGT
DNA 2: ACTGATGGCCACCCGCCCACAGCCAGGCCGAGAGCA
Consider B37, for which the binding signal was 327 PBM fluorescence, median of replicate spots.

B38: Table S2 C row 135 (dsDNA)
DNA 1: GGGTCCCGGGGACCCTGCGGGCTCCGAGTAGTCGTA
DNA 2: TACGACTACTCGGAGCCCGCAGGGTCCCCGGGACCC
In the case of B38, the binding signal was 332 PBM fluorescence, median of replicate spots.

B39: Table S2 C row 95 (dsDNA)
DNA 1: TGTCTCATCAGCCAGGCCACAAACGCGATGTTTACA
DNA 2: TGTAAACATCGCGTTTGTGGCCTGGCTGATGAGACA
B39: the binding signal is 338 PBM fluorescence, median of replicate spots.

The record behind these values is publication PMC10681739, “High-throughput data and modeling reveal insights into the mechanisms of cooperative DNA-binding by transcription factor proteins”.
